# Results published in patent US20140154817A1 (WALTER AND ELIZA HALL INSTITUTE OF MEDICAL RESEARCH, published 2014).
# Bridge positions count the residues as written; N and C are the ends. Ends that are not written are not given here. * marks the point of attachment. Biotin = O=C1N[C@H]2[C@H](CS[C@H]2CCCCC(=O)*)N1
# B1: IR classical α-chain C-terminal peptide (residues 704-719) (peptide)
# peptide: TFEDYLHNVVFVPRPS
# notes: Mature IR-A numbering; also called IR αCT; IR-αCT
# B2: F714A mutant of the IR classical αCT peptide (peptide)
# peptide: TFEDYLHNVVAVPRPS
# notes: also called IR αCT.714A; IR-αCT.714A
# B3: IR485 pre-complexed with a 10-fold molar ratio of IGF-1R classical αCT peptide (other)
# chain: HLYPGEVCPGMDIRNNLTRLHELENCSVIEGHLQILLMFKTRPEDFRDLSFPKLIMITDYLLLFRVYGLESLKDLFPNLTVIRGSRLFFNYALVIFEMVHLKELGLYNLMNITRGSVRIEKNNELCYLATIDWSRILDSVEDNHIVLNKDDNEECGDICPGTAKGKTNCPATVINGQFVERCWTHSHCQKVCPTICKSHGCTAEGLCCHSECLGNCSQPDDPTKCVACRNFYLDGRCVETCPPPYYHFQDWRCVNFSFCQDLHHKCKNSRRQGCHQYVIHNNKCIPECPSGYTMNSSNLLCTPCLGPCPKVCHLLEGEKTIDSVTSAQELRGCTVINGSLIINIRGGNNLAAELEANLGLIEEISGYLKIRRSYALVSLSFFRKLRLIRGETLEIGNYSFYALDNQNLRQLWDWSKHNLTTTQGKLFFHYNPKLCLSEIHKMEEVSGTKGRQERNDIALKTNGDKASCENELLKFSYIRTSFDKISDDDDKEQKLISEEDLN
# peptide: VFENFLHNSIFVPRPE
# notes: Non-covalent receptor fragment and peptide mixture in the ITC cell; also called IR485 + (10 × IGF1R-αCT)
# B4: IR485 pre-complexed with a 10-fold molar ratio of IR classical αCT peptide (other)
# chain: B3 chain
# peptide: TFEDYLHNVVFVPRPS
# notes: Non-covalent receptor fragment and peptide mixture in the ITC cell; also called IR485 + (10 × IR-αCT)
# B5: IR485 construct of human insulin receptor (receptor)
# chain: B3 chain
# notes: The tag was not removed for ITC; Expressed in Lec8 mutant CHO cells; also called insulin mini-receptor IR485; first three domains of IR (L1-CR-L2)
# B6: S519C16 peptide (peptide)
# peptide: GSLDESFYDWFERQLG
# notes: Synthetic peptide, AusPep, >90% purity; also called Site 1 peptide, the 16 C-terminal residues of S519
# B7: S519 peptide (peptide)
# peptide: SLEEEWAQVECEVYGRGCPSGSLDESFYDWFERQLG
# modifications: disulfide 11-18 (inferred)
# notes: 36-residue synthetic peptide, Activotec, >85% purity; also called insulin mimetic peptide S519
# B8: N-terminally biotinylated IR αCT peptide 698-719, wild type (peptide)
# peptide: Biotin-ESSFRKTFEDYLHNVVFVPRPS
# notes: Genscript, >75% purity; also called wt; native peptide
# B9: N-terminally biotinylated IR αCT peptide 698-719, R702W (peptide)
# peptide: Biotin-ESSFWKTFEDYLHNVVFVPRPS
# B10: N-terminally biotinylated IR αCT peptide 698-719, T704Y (peptide)
# peptide: Biotin-ESSFRKYFEDYLHNVVFVPRPS
# B11: N-terminally biotinylated IR αCT peptide 698-719, R702Y/T704W (peptide)
# peptide: Biotin-ESSFYKWFEDYLHNVVFVPRPS
# B12: N-terminally biotinylated IR αCT peptide 698-719, T704W (peptide)
# peptide: Biotin-ESSFRKWFEDYLHNVVFVPRPS
# B13: N-terminally biotinylated IR αCT peptide 698-719, R702Y (peptide)
# peptide: Biotin-ESSFYKTFEDYLHNVVFVPRPS
# B14: S519N20 peptide (peptide)
# peptide: SLEEEWAQVECEVYGRGCPS
# modifications: disulfide 11-18 (inferred)
# notes: Synthetic peptide, AusPep, >90% purity; also called Site 2 peptide, the 20 N-terminal residues of S519
# B15: IGF-1R classical α-chain C-terminal peptide (residues 691-706) (peptide)
# peptide: VFENFLHNSIFVPRPE
# notes: Mature IGF-1R numbering; also called IGF-1R αCT; IGF1R-αCT
# Columns and labels:
# [1] = target: T1, Zinc-free porcine insulin (porcine, UniProt P01315 88-108; P01315 25-54); experiment: ITC, 25 °C, IR αCT peptide 200 µM titrated into ZFP-insulin 20 µM
# T1 construct: mature; Made zinc-free by dialysis against 0.1% acetic acid and lyophilisation; also called ZFP-insulin
# Description: (§1) ITC experiments were performed using a VP-ITC isothermal titration calorimeter (MicroCal Inc., USA) with the calorimeter cell held at 25° C. All samples were degassed prior to injection or placement into the cell, and the instrument was temperature equilibrated prior to the start of the injections. In all experiments the volume of sample placed in the cell was 1.4 ml and the titrant was injected in 7 μl volumes over 14 s at 3 min intervals, with the total number of injections being 40. The sample contents were stirred at a speed of 310 rpm over the duration of the titration. […] Data were analyzed using the instrument's software incorporated within the Origin 7 software (OriginLab, USA) and in all cases fitted as a single-site interaction using the methodologies outlined in the instrument's manual.
# [2] = target: B5; experiment: ITC, 25 °C, peptide titrated into IR485, single-site fit, mean of three
# Description: as §1
# Human IGF-I [3] = target: T2, Human IGF-I (human, UniProt P05019 49-118); experiment: ITC, 25 °C, IGF-I titrated into IR485 pre-mixed with 10-fold IGF-1R αCT peptide
# T2 construct: mature
# Description: as §1
# [4] = target: T1, Zinc-free porcine insulin; experiment: ITC, 25 °C, hormone titrated into IR485 pre-mixed with 10-fold IGF-1R αCT peptide
# Description: as §1
# Human IGF-I [5] = target: T2, Human IGF-I; experiment: ITC, 25 °C, IGF-I titrated into IR485 pre-mixed with 10-fold IR αCT peptide
# Description: as §1
# [6] = target: T1, Zinc-free porcine insulin; experiment: ITC, 25 °C, hormone titrated into IR485 pre-mixed with 10-fold IR αCT peptide
# Description: as §1
# Human IGF-I [7] = target: T2, Human IGF-I; experiment: ITC, 25 °C, IGF-I 100 µM titrated into IR485 10 µM
# Description: as §1
# [8] = target: T1, Zinc-free porcine insulin; experiment: ITC, 25 °C, ZFP-insulin 50 µM titrated into IR485 5 µM
# Description: as §1
# [9] = target: B5; experiment: ITC, 25 °C, peptide titrated into IR485
# [10] = target: B5; experiment: ITC, 25 °C, S519C16 titrated into IR485 pre-mixed with a 10-fold molar ratio of IR αCT peptide (competitor)
# Description: as §1
# [11] = target: B5; experiment: ITC, 25 °C, S519C16 titrated into IR485 pre-mixed with a 10-fold molar ratio of IR αCT peptide (competitor); apparent Kd; IR485 in the presence of a 10-fold molar ratio of IR αCT peptide
# Description: as §1
# [12] = target: B5; experiment: ITC, about 25 °C, peptide titrated into IR485
# Description: (§2) The insulin mini-receptor IR485 construct was produced and purified as previously described (Lou et al., 2006), omitting the final ion-exchange chromatography step. Isothermal titration calorimetry (ITC) experiments were performed using a VP-ITC isothermal titration calorimeter (MicroCal Inc., USA) with the calorimeter cell held at about 25° C. The ITC cell contained insulin mini-receptor IR485 prepared at about 10 μM concentration in Tris-buffered saline plus azide (TBSA; about 24.8 mM Tris-HCl (pH 8.0), 137 mM NaCl, 2.7 mM KCl, and 0.02% sodium azide), and the syringe contained the peptide prepared at about 60 μM concentration in TBSA. All samples were degassed prior to injection or placement into the cell, and the instrument was temperature equilibrated prior to the start of the injections.
# (§3) In all experiments the volume of the insulin mini-receptor IR485 sample placed in the cell was about 1.4 ml and the titrant was injected in about 7 μl volumes over 14 s at 3 min intervals, with the total number of injections being 40. The sample contents were stirred at a speed of about 310 rpm over the duration of the titration. All titrants were first injected into a solution of TBSA alone in order ascertain the heat of dilution, which was then subtracted from the data of interest as appropriate. Each experiment was performed three times, except for that employing the native peptide, which was performed twice. Data were analyzed using the instrument's software incorporated within the Origin 7 software (OriginLab, USA) and in all cases fitted as a single-site interaction using the methodologies outlined in the instrument's manual.
# [13] = target: B5; experiment: ITC, about 25 °C, peptide about 60 µM titrated into IR485 about 10 µM
# Description: as §2, §3
# [14] = target: B5; experiment: ITC, mutant αCT peptides 698-719 titrated into IR485
# Description: as §2
# as §3, with “All titrants were first injected into a solution of TBSA alone in order ascertain the heat of dilution, which was then subtracted from the data of interest as appropriate. Each experiment was performed three times, except for that employing the native peptide, which was performed twice.” left out
# [15] = target: B5; experiment: ITC, 25 °C, S519N20 50 µM titrated into IR485 5 µM
# Description: as §1
# Human IGF-I [16] = target: T2, Human IGF-I; experiment: ITC, 25 °C, IGF-1R αCT peptide 200 µM titrated into IGF-I 20 µM
# Description: as §1
# T1 sequence (P01315 88-108 limits assumed, chain 1 of 2): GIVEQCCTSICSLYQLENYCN
# T1 sequence (P01315 25-54 limits assumed, chain 2 of 2): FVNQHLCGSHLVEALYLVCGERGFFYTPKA
Binder,TΔS° [12] [kcal/mol],ΔG° [12] [kcal/mol],ΔH° [12] [kcal/mol],Kd [13] [µM],further results
B1,–,–,–,–,Kd [1]: > 1000 µM; Kd [2]: 3.9 µM
B2,–,–,–,–,Kd [2]: 6.5 µM
B3,–,–,–,–,Kd (Human IGF-I [3]): 0.022 µM; Kd [4]: 0.0057 µM
B4,–,–,–,–,Kd (Human IGF-I [5]): 0.49 µM; Kd [6]: 0.017 µM
B5,–,–,–,–,Kd (Human IGF-I [7]): > 1000 µM; Kd [8]: > 1000 µM
B6,–,–,–,–,-TΔS^0 [9]: 2.87 kcal/mol; Kd [9]: 0.0026 µM; ΔH^0 [9]: -14.6 kcal/mol; -TΔS^0 [10]: -2.63 kcal/mol; ΔH^0 [10]: -7.89 kcal/mol; Kd [11]: 0.016 µM
B7,–,–,–,–,-TΔS^0 [9]: 5.74 kcal/mol; Kd [9]: 0.011 µM; ΔH^0 [9]: -16.5 kcal/mol
B8,-3.35,-8.01,-11.5,1.34,–
B9,-0.717,-8.89,-8.37,0.309,–
B10,-2.63,-8.37,-11,0.74,–
B11,-1.2,-10.6,-11.7,0.018,fold increase in affinity against the wild type peptide [14]: ≤ 100 fold
B12,2.63,-9.13,-6.21,0.201,–
B13,-2.87,-9,-12,0.249,–
B14,–,–,–,–,Kd [15]: > 1000 µM
B15,–,–,–,–,Kd (Human IGF-I [16]): > 1000 µM; Kd [2]: 17.6 µM
